Laboratory results from the supplement of paper PMC9170038.

Tested on: K4 kissing-loop RNA reporter
Assay: apparent KD of K4 kissing-loop reporter; higher = weaker reporter binding
Conditions: Eterna round: R107
Protocol: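 RNA-MaP round R107: designed RNA switches with theophylline, tryptophan, arginine or FMN aptamers are transcribed on-chip within common flanks. They are titrated with a labelled K4 kissing-loop RNA reporter in RNA-MaP buffer (100 mM Tris pH 7.5, 80 mM KCl, 4 mM MgCl2), without ligand or with the indicated ligand. Median apparent KD per design.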

[1] = input ligand: theophylline 20 uM
[2] = input ligand: tryptophan 2.4 mM
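Also: bound reporter read as fluorescence of individual clusters on recovered sequencing chips by microscopy, with normalized cluster intensities fitted with a binding model.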

Sequence	apparent KD of K4 kissing-loop reporter (input ligand: FMN 200 uM) [µM]	apparent KD of K4 kissing-loop reporter (input ligand: arginine 13.2 mM) [µM]	apparent KD of K4 kissing-loop reporter (input ligand: none) [µM]	apparent KD of K4 kissing-loop reporter [1] [µM]	apparent KD of K4 kissing-loop reporter [2] [µM]
UACAUUUUAUUAACACUAAAUACAACUGAAGGAGCGACAAUAAAGUCAGGUAGGUCGCAGAAUAAAUGAGUGAUGUUCAUUAUUG [JR_ExcArginiA_Sub016]	0.0602	0.101	0.0638	0.0928	0.0512
UACGCUUACUUGCGCGGUCCGAUUAACGAUACCAGCGAAGAAGCCCGCCCUUGGCAGCGUUAUAGAGUGAUGUUCACGGAGAUUA [theeternabot_sameState_KL_Theo_A_12]	1.1	0.872	0.989	1.07	0.874
UAGGAGUGAUGUUCCAUAUCUUGAGCCGAAGGAGCGCCUUUCUAGGCAGGUAGGUCGCGGCAGAAGGUACCAGUGAUGUUGGAAA [Same State Arginine A GF7]	0.163	0.171	0.208	0.184	0.145
UAGGCCGCAUACAUUAGAUAAGGUACCGAUACCAGCCUCGCACCAGGCCCUUGGCAGCGGCAUCAAAUGGGUAGUGAUGUUACCU [theeternabot_exclusion_KL_Theo_A_20]	0.139	0.135	0.159	0.144	0.136
UAGGCGGGAGAAGGAUAUCUGUGAAACCUGCUGCCCAAUAAGUGAUGUUUAUAAAGGAAGCGUCAUAGAGAAGGUCUAACAAGUA [theeternabot_sameState_KL_FMN_B_1]	0.512	0.582	0.714	0.642	0.814
UAGUCAUACAGAGGAUAUCGUAUGAGUGAUGUUCAUACGAUAUAAUCUAAUUGUAUAGAUGUUCGACGAGAAGGCUGUAUGACUA [FMN B Ex t1a]	0.116	0.0845	0.0949	0.0913	0.0926
UAGUCCUAGUGAUCCUUAUCAAGUGGUGGGCGAGGACCGGUACGGCCGCCACUCGACUAUGCAGUGAUGUUGUAAUCCGGACAAU [Exclusion - Tryptophan A (Freestyle 12)]	0.669	0.488	0.633	0.742	0.541
UAUAUAGUGACGGCCGCCACUAUAUUAAUGUUUAGGUUAGAGUGAUGUUUUGAUUAAUAUUUUUAUAGGACCGGGUUAUAUGUUA [xerrmullin]	0.563	0.314	0.511	0.739	0.428
UAUCGAGUGAUGUUCGAUGUAGUGCAUUCAGAGGAUAUAGGAUGGGCUAGAAGGCUGAAAAGUGCUUCGAGUGAUGUUCGAAGAU [Exclusion FMN A GF 5]	0.0638	0.0492	0.0803	0.0576	0.0653
UAUGAAGGUGGAGGAUAUUGAUUGAACCUUGGUCAGGAGUGAUGUUCCGGGAAGCCUUGGGUUCAUCGAGAAGGCCAAGGAUAGU [Extra 2]	0.139	0.257	0.254	0.28	0.238
UAUUAAGUGACGGCCGCCACUAUGGUGAUUUAUUUGUUUGAGUGAUGUUUUGAUGUUUGAUUUUGUAGGACCGGGUUAUGUGUUA [ttttcmullin]	0.969	0.641	0.735	0.752	0.597
UAUUGAUUGUCAGGAUAUCGUAAACGAGUGAUGUUCGUAAAUCGACGAUAGUCGAUAUGAUCUGAACGAGAAGGGACAUUAUUUA [JR_SSFMNB_Sub010]	0.365	0.311	0.388	0.336	0.305
UCAGUGAUGUUGAACAAAUAAUGGUUCCUAAAGGAUAUCCACAGAUGGAGAAGGUUAGUAGCGGCUCGCACAUCGUAGGACAAAU [theeternabot_exclusion_KL_FMN_A_1]	0.767	0.648	0.734	0.602	0.526
UCCACGCUUAGAGGAUAUCGGAUUAGAGUGAUGUUCUAAAGAAGCCCAGUGAUGUUGGAUGGUAUACGAGAAGGCUGUGGCGUGU [Same State FMN B GF 4]	0.254	0.446	0.386	0.371	0.369
UCCACGCUUAGAGGAUAUCGGAUUAGAGUGAUGUUCUAAAGACGCCCAGUGAUGUUGGAUGGUAUACGAGAAGGCUGUGGCGUGU [Same State FMN B GF5]	0.219	0.539	0.551	0.622	0.41
UCCUAGGCUCGAAAGAGCCUAGGAUGGACUCAGGAUAUCCGGAAACGGAGAAGGGAGUCACUAGUGAUGUUAGGGACUCCCUAAC	0.302	0.0977	0.11	0.123	0.109
UCCUAGGCUCGAAAGAGCCUAGGAUUUACUCAGGAUAUCCGGAAACGGAGAAGGGAGUGACUAGUGAUGUUAGGGACUCCCUAAA	0.144	0.0808	0.0955	0.108	0.0906
UCCUGCAAUCGACCACGAAAGUGGUUCGAUACCAGAGUCGAAAGACUCCCUUGGCAGCGAGUGAUGUUCGAGCAGGUAAAAUAAA	0.438	0.436	0.567	0.467	0.472
UCCUGCAAUCUGCCACGAAAGUGGGUUGAUACCAGAGUCGAAAGACUCCCUUGGCAGCGAGUGAUGUUCGUUGCAGGUGUUUAAA [MatMod 11 - Jieux - Exclusion - Theophylline A]	0.197	0.172	0.186	0.217	0.174
UCCUUUGUUGCCAGUGAUGUUGGACAGGAAGGAGCGGGCAUAAGCCCAGGUAGGUCGCCUGUCAACUUUCUUAUAGCCCUAAGGU [KL-XArg-A16]	0.343	0.329	0.372	0.323	0.337
UCGCGUAAUGGAAGGAGCGGUGCCAGUGAUGUUGGAUACUGCGUGUAUUAGGUCGGAGCGCACCAGGUAGGUCGCCAUUUGGUGG [Tigedies]	0.328	0.276	0.236	0.271	0.369

Sequence	apparent KD of K4 kissing-loop reporter (input ligand: FMN 200 uM) [µM]	apparent KD of K4 kissing-loop reporter (input ligand: arginine 13.2 mM) [µM]	apparent KD of K4 kissing-loop reporter (input ligand: none) [µM]	apparent KD of K4 kissing-loop reporter [1] [µM]	apparent KD of K4 kissing-loop reporter [2] [µM]
UCUCAGGAGUGAUGUUCCGUAGGUGGAAGGAAGGAUAUCUAAUGGCAGAGAAGGUCCAUCCUUGCUCGUAUCAGUGCCGGGAAGC [theeternabot_exclusion_KL_FMN_A_13]	0.282	0.251	0.232	0.304	0.168
UCUCCAGUGAUGUUGGAGACGGAUGAGGAAGGAGCGGGCACGUGCCCAGGUAGGUCGCCUCGAAAGCCCUGUAGCAUCGCGAAAC [Disoribe]	0.281	0.188	0.203	0.193	0.149
UCUGGAGCAUAUGAUACCAGCAGUGAGAGAGAGGAAGUAUAGUGAUGUUAUAUGAGAGAAUGCCCUUGGCAGCGUGUGUAGUGGG [SSTheophylB.M]	0.155	0.146	0.119	0.0945	0.107
UCUGGUAUAUCUGAUACCAGAGUAUAGUAUCAAUUGAAUAUGGAGUGAUGUUCCAUACAACUCCCUUGGCAGCAGAUCUUCCUCU [Same State Theophylline B GF 23]	0.145	0.206	0.188	0.193	0.124
UGACACUCAACGGCCGCCACUACCGUCGCCGAAUUCCGCAGUGAUGUUGCGAUCCUCCGAUUGUCUAGGACCGGGUUGUUUGGGC [theeternabot_exclusion_KL_Trp_B_43]	0.181	0.209	0.223	0.216	0.162
UGACAUUGCUCAGAUACCAGACACGAGGAUCACCCGUGUGCCAAAACGUACUAAAUAAGUGUCCCUUGGCAGCUGAGCAAUGUCU [TheoBX 13]	0.0781	0.0198	0.0301	0.148	0.0478
UGACAUUGCUCAGAUACCAGACAUGAGCAUCAGCCAUGUACCAAGAAAACGUACAUAAAUGUCCCUUGGCAGCUGAGCAAUGUCU [TheoBX 10]	0.0835	0.0398	0.0599	0.089	0.0638
UGACAUUGCUCAGAUACCAGACAUGAGCAUCAGCCAUGUGCCAACGUACAAAUAAUAAAUGUCCCUUGGCAGCUGAGCAAUGUCU [TheoBX 15]	0.0674	0.0258	0.0482	0.0646	0.0599
UGACAUUGCUCAGAUACCAGACUUGAGGAUCACCCAAGUGCCAAACGUACAAUAAUAAAAGUCCCUUGGCAGCUGAGCAAUGUCU [TheoBX 14]	0.201	0.0134	0.0972	0.112	0.0621
UGACUACAAAAGGAAUAAUCCUAGUGAUGUUAGGAUAUGCUGAUAAGCAGAAGGAACGGAGAUCGAAGGAUCUCAUAUGUAGUCU [whbob_Ex_FMNA__2th193]	0.17	0.0921	0.0869	0.117	0.089
UGACUGGACUGAAGGAGCGCGAACUCCUAGUGAUGUUAGGAAAUACGAGACAAAGUCUCGACGCAGGUAGGUCGCAGUCUAGUCU [ArgBS 15 #SwitchBubble #StaticStem]	0.11	0.0866	0.107	0.104	0.098
UGACUGGACUGAAGGAGCGCGCGAGACAAAGUCUCGAACUGCUAGUGAUGUUAGCAAAUAACGCAGGUAGGUCGCAGUCUAGUCU [ArgBS 11 #SwitchBubble #StaticStem #DoubleMagnet]	0.135	0.1	0.137	0.0923	0.124
UGACUGGACUGAAGGAGCGCUAAACUCCUAGUGAUGUUAGGGAAACAAGACAAAGUCUUGAGGCAGGUAGGUCGCAGUCUAGUCU [FiskerMod 3 - Jieux - Same State - Arginine B]	0.287	0.199	0.264	0.272	0.225
UGACUGGACUGAAGGAGCGGGCGAGACAAAGUCUCGAACUGCUAGUGAUGUUAGCAAAUAACCCAGGUAGGUCGCAGUCUAGUCU	0.122	0.1	0.12	0.109	0.11
UGACUGGAUGGAAGGAGCGCUAAACUCCUAGUGAUGUUAGGGACAUGAGGCAAAGCCUUGAAGCAGGUAGGUCGCCAUCUAGUCU [FiskerMod 27 - Jieux - Same State - Arginine B]	0.233	0.133	0.208	0.176	0.167
UGACUGGAUUGAAGGAGCGCUAAACUCCUAGUGAUGUUAGGGACACGAGACAAAGUCUCGAGGCAGGUAGGUCGCAAUCUAGUCU [FiskerMod 6 - Jieux - Same State - Arginine B]	0.309	0.225	0.247	0.296	0.249
UGAGGAGAGGGAAGGAGCGUGAAAGAGAAAGAAUAUAGUGAUGUUAUAUAGAAGAAAGAAUCACAGGUAGGUCGCCCGGAGGAGG [SSArgB.B]	0.278	0.742	0.479	0.669	0.284
UGAUACCAGACGGCCGCCACUACACCAGUCAAAGACUGGAUGUGAUGUUUGACCAGUGAUGUUGGUAGGACCGGGUCUGGUAUCU [TrypBX 5 #Palindromic #SwitchBubble #StaticStem]	0.5	0.394	0.45	0.494	0.326
UGAUACCAGACGGCCGCCACUAGGGCUAGCAAAGCUAGCAAGUGAUGUUUGAGGAGUGAUGUUCCUAGGACCGGGUCUGGUAUCU [TrypBX 1 #Palindromic #SwitchBubble #StaticStem]	0.0605	0.0363	0.0522	0.0465	0.0259
UGAUACCAGACGGCCGCCACUCCCGCAGGUCAAAGACCUGCGAAGAAGGUUCUUCAGUGAUGUUGGAGGACCGGGUCUGGUAUCU [FiskerMod 22 - Jieux - Exclusion - Tryptophan B]	0.217	0.168	0.207	0.213	0.369
UGAUACCAGACGGCCGCCACUCCCGUAAGUCAAAGACUUACGAAGAGGGUUUUUCAGUGAUGUUGGAGGACCGGGUCUGGUAUCU [FiskerMod 17 - Jieux - Exclusion - Tryptophan B]	0.516	0.42	0.545	0.506	0.824
